Source: patent US20240076371A1, “COMPOSITIONS AND METHODS FOR TREATING OSTEOARTHRITIS, RHEUMATOID ARTHRITIS, AND JOINT AND TENDON DISORDERS” (BOARD OF REGENTS, THE UNIVERSITY OF TEXAS SYSTEM, priority 2021, published 2024)

What was measured:
[1] = tested on: post-traumatic OA model (DMM) in male C57BL/6 mice; assay: DMM OA model: micro-computed tomography of tibia subchondral bone; assay type: in vivo, mouse; conditions: eight weeks post-surgery, vs saline-treated DMM mice
Experimental: (§1) Destabilization of the medial meniscus (DMM) surgery was performed on the right knee joint of mice (Glasson S S, et al. Osteoarthritis and cartilage. 2007; 15(9):1061-9). Briefly, a 3 mm longitudinal incision over the distal patella to proximal tibial plateau was made. The joint capsule immediately medial to the patellar tendon was incised with a #15 blade and the joint capsule opened with micro-iris scissors. Blunt dissection of the fat pad over the intercondylar area was then performed to expose the intercondylar region, providing visualization of the meniscotibial ligament of the medial meniscus. Mild hemorrhage from the fat pad upon blunt dissection was controlled by pressure from absorption spears. Sectioning of medial meniscotibial ligament with micro-surgical knife, with the blade directed proximo-laterally, gave destabilization of the medial meniscus (DMM). Sham surgery was performed with the ligament visualized but not transected.
Micro-computed tomography. Following behavioral tests, mice were sacrificed and hindlimbs were dissected immediately and fixed in 4% paraformaldehyde. The structural properties of subchondral bone were evaluated using a 3D reconstruction of μCT imaging system (Brüker SkyScan 1173; Brüker microCT, Kontich, Belgium). Samples were scanned in saline with the following settings: 60 kV, […] beam intensity, 0.5 mm aluminum filter, 0.7° rotation step, 4-frame averaging, 1090 ms integration time, 1024×1024 pixel matrix, and a 10 μm isotropic voxel dimension. After scanning, noise was removed from the images by eliminating disconnected objects smaller than 4 pixels in size. Morphometric analysis was performed on 50 slices extending proximally, beginning with the first slice in which the tibia condyles had fully merged. The subchondral bone was segmented from the cortical shell manually on key slices using a contouring tool, and the contours were morphed automatically to segment the trabecular bone on all slices. The morphometry was reconstructed and analyzed. A grayscale value of 95 in a set of 8-bit slices was set as the threshold and was applied to the specimens after comparing grayscale and binarized images in both groups. After thresholding, the BV/TV (%), Tb.Th (mm), Tb.Sp (mm), and Tb.N (mm^−1) were quantified.

[2] = tested on: post-traumatic OA model (DMM) in male C57BL/6 mice; assay: DMM OA model: open field test; assay type: in vivo, mouse
Experimental: as §1
Spontaneous locomotor activity was analyzed using the open-field test. Mice were placed into the center of a chamber 25×25×25 cm to allow free exploration. The experiments were performed for 10 minutes. Total travel distance, and immobility time were measured by computerized analysis. Mice behavior was recorded, and videos were analyzed by use of ANY-maze behavior tracking software (Stoelting Co., Wood Dale, IL, USA).

[3] = 4 weeks after DMM, vs saline group
[4] = single i.p. injection, eight weeks after DMM, vs saline

B1: M1 antibody: antibody with variable heavy chain SEQ ID NO: 58 and variable light chain SEQ ID NO: 60; inhibits or blocks opening of Cx43 hemichannel (antibody, V domains shown)
VH: EVQLQQPGAELVKPGASVKLSCKASGYTFTSYYMYWVKQRPGQGLEWIGGINPSNGGTNFNEKFKNKATLTVDKSSSTAYMQLSSLTSEDSAVYYCTREGNPYYTMNYWGQGTSVTVSS
VL: DIVMTQSPSSLSVSAGEKVTMSCKSSQSLLNSGNQKTYLAWYQQKPGQPPKLLIYGASTRESGVPDRFTGSGSGTDFTLTISSVQAEDLAVYYCQNDHSYPFTFGSGTKLEIK
[1]
  bone mineral density (BMD) at the tibia subchondral bone: significantly decreased
  bone volume fraction (BV/TV) at the tibia subchondral bone: significantly decreased
  trabecular separation (Tb.Sp) at the tibia subchondral bone: elevated
  trabecular thickness (Tb.Th) at the tibia subchondral bone: significantly decreased
[2]; [3]
  distance moved (open field): trend of increased distance moved
  immobility time (open field): decreased immobility time
[2]; 8 weeks after DMM, i.p. twice
  pain responses: reductions in distance traveled and elevations in immobility time (open field): suppressed these pain responses
[2]; sham mice at 8 weeks
  distance traveled and immobility time in sham mice, saline vs antibody: No difference
[2]; [4]
  distance traveled (open field): significant increase
  immobility time (open field): reduction
